{
  "source": "patent US11529390B2",
  "about": "“PCSK9 inhibitory polypolypeptides and methods of use” (INSTITUT DE CARDIOLOGIE DE MONTREAL, priority 2015, dated 2022)",
  "molecules": {"B1": {"name": "SEQ ID. NO. 6: GRP94 CDB-CT domain, 148 aa, recombinant ~20 kDa protein purified from E. coli (protein)", "chain": "YGWSGNMERIMKAQAYQTGKDISTNYYASQKKTFEINPRHPLIRDMLRRIKEDEDDKTVLDLAVVLFETATLRSGYLLPDTKAYGDRIERMLRLSLNIDPDAKVEEEPEEEPEETAEDTTEDTEQDEDEEMDVGTDEEEETAKESTAE"}},
  "key": {"[1]": {"tested_on": "PCSK9-mCherry internalization", "test": "PCSK9-mCherry internalization in LDLR-EGFP transfected HepG2 cells, confocal microscopy", "type": "cell-based, human", "conditions": "10 nM recombinant protein, HepG2, overnight, versus control", "protocol": "(§1) FIG. 5: SEQ ID NO. 67 blocks PCSK9 internalization and LDLR degradation. Recombinant SEQ ID NO. 67 was added to conditioned media obtained from HEK293 transfected with PCSK9-mCherry or in DMEM together with recombinant human PCSK9, rotated 4 h at 4° C. and added overnight on HepG2 cells as indicated. (a) Following 24 h post-transfection with LDLR-EGFP cDNA (SEQ. ID. NO. 69), HepG2 cells were incubated with PCSK9-mCherry without (−) or with 10 nM SEQ ID NO. 67. Fluorescent proteins were visualized in fixed cells by confocal microscopy. (b) Cells were incubated without or with 25 nM PCSK9 alone or with 0, 10, 25 or 100 nM SEQ ID NO. 67. Total LDLR, SEQ ID NO. 67, PCSK9 and β-actin protein levels were analyzed by immunoblotting in cell lysates and conditioned media as indicated. Data are representative of at least three independent experiments.\nHuh-7 cells were washed three times with PBS, fixed with Bouin's solution (0.9% picric acid, 9% paraformaldehyde, 5% acetic acid/PBS) for 15 min. Following extensive PBS washes, cells were permeabilized with 0.1% Triton X-100/PBS for 10 min and incubated with 150 mM glycine to stabilize the aldehydes. […]"}, "[2]": {"tested_on": "PCSK9-induced LDLR degradation", "test": "PCSK9-induced LDLR degradation in HepG2 cells, extracellular addition, immunoblot", "type": "cell-based, human", "protocol": "as §1\nFIG. 7: SEQ ID NO. 6 prevents PCSK9-induced LDLR degradation. (a) Left; Coomassie staining of purified recombinant SEQ ID NO. 6 and PCSK9 separated by SDS-PAGE is shown. Right; HepG2 cells were incubated in DMEM without or with 0, 25, 100 or 250 nM SEQ ID NO. 6 alone or in presence of recombinant PCSK9. (b) HepG2 cells were transfected without (−) or with PCSK9-V5 in absence (−) or presence SEQ ID NO. 66 or SEQ ID NO. 46. Total LDLR, PCSK9, SEQ ID NO. 66, SEQ ID NO. 46 and β-actin protein levels were analyzed by immunoblotting in cell lysates and conditioned media as indicated. Data are representative of at least three independent experiments.\nFor Western blot analyses, SDS-polyacrylamide gels were blotted on nitrocellulose membranes (Cat. #162-0115, Bio-Rad), and blocked for 1 h in Tris-Buffered Saline-Tween 20 (TBS-T; 50 mM Tris-HCl, pH 7.5, 150 mM NaCl, 0.1% Tween 20) containing 5% non-fat dry milk. Membranes were then incubated overnight in TBS-T supplemented with 1% non-fat milk and indicated antibodies: rabbit anti-PCSK9 (1:2500, custom made, GenScript), goat anti-human or anti-mouse LDLR (1:1000; Cat. #AF2148 or #A2255, R&D Systems), rat anti-Grp94 (1:30,000), rabbit anti-GRP78 (1:2500; Cat. #ab21685, Abcam), rabbit anti-GFP (1:2000; Cat. #A11122, Life Sciences), mouse anti-V5-tag (1:5000; Cat. #A00641, GenScript), mouse anti-HA-tag (1:5000), rabbit anti-β-actin (1:5000; Cat. #A2066, Sigma-Aldrich). Appropriate HRP-conjugated secondary antibodies (1:10,000, GE healthcare) were used for detection using the Western Lightning Ultra chemiluminescence kit (Cat. #NE1112001EA, PerkinElmer) and BioFlex EC Films (Cat. #CLEC810, InterScience).\nTo validate this hypothesis, we therefore first tested the effect of extracellular SEQ ID. NO. […]\nWe next tested whether SEQ ID. […] (Poirier et al., 2009) As PCSK9 was also shown to induce LDLR degradation via an intracellular pathway, (Poirier et al., 2009) we evaluated to ability of SEQ ID. […]"}, "PCSK9 binding to LDLR": {"molecular_target": "T1, PCSK9 binding to LDLR (Homo sapiens, UniProt Q8NBP7)", "T1 construct": "made in house; host or cells: HEK293T", "T1 sequence (Q8NBP7 153-692)": "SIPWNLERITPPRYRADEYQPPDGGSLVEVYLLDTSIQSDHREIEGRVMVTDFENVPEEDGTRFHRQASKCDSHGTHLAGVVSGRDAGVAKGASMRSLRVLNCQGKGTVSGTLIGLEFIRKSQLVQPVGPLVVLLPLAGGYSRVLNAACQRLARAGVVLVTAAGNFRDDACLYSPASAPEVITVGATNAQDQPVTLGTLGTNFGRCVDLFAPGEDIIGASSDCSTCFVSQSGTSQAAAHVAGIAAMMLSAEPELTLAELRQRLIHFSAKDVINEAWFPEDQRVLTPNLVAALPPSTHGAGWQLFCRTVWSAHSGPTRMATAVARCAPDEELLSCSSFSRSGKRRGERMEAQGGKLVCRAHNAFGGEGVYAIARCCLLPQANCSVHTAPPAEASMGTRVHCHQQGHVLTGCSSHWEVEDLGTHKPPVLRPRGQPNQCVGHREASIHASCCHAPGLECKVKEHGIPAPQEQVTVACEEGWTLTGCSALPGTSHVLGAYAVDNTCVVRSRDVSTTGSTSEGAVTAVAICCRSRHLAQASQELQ", "T1 sequence (Q8NBP7 31-152 partner limits assumed)": "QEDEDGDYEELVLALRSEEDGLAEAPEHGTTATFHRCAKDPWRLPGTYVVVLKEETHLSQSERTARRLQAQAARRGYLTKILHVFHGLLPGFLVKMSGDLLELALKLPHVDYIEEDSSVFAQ", "test": "In vitro PCSK9-LDLR competitive pull-down (immunoprecipitation with mAb-V5)", "conditions": "1 μg PCSK9, 1 μg LDLR, preincubation 4 h", "protocol": "FIG. 6: SEQ ID NO. 6 reduces PCSK9 binding to LDLR in vitro. Left; Coomassie staining of His6 tag purified recombinant SEQ ID NO. 6 and PCSK9 produced as described in Material and Methods. Right; PCSK9-V5-His6 (1 μg) was incubated without (−) or with (+) recombinant SEQ ID NO. 6 (2 μg) in 500 μl of immune-precipitation (IP) buffer (PBS, 1 mM CaCl2, 1% Tween-20 and protease inhibitors) for 4 h at 4° C. on a rotator. Following incubation, 1 μg of recombinant human LDLR ectodomain was added together with 50 μl of A/G-agarose beads and 1 μg of mAb-V5 antibody and incubated with rotation overnight. Samples were then centrifuged at 3,000×g for 5 min and pellets washed three times with 1 ml IP buffer and rotated for 10 min 4° C. and resuspended in 2× Laemmli loading buffer. Samples were separated by SDS-PAGE and immune-blotted as indicated. Data are representative of two independent experiments.\nNO. […] NO. 3 might be due to direct competition for PCSK9 binding to the LDLR. To test this hypothesis, we subcloned the SEQ ID. NO. 6 into the pET-24 bacterial expressing vector of which recombinant protein were retrieved from E. coli and purified by metal affinity and size exclusion chromatography. The homogeneity of purified SEQ ID. NO. 6(^˜20 kDa) and recombinant PCSK9 purified from conditioned media of HEK293 transfected cells were assessed by SDS-PAGE and coomassie staining (FIG. 6; left panels). […]"}},
  "data": [
    {"molecule": "SEQ ID. NO. 67: full-length recombinant GRP94 obtained from Enzo Life Sciences (Cat. #ADI-SPP-766)", "values": [
      {"measurement": "PCSK9-mCherry internalization in LDLR-EGFP expressing cells", "setting": "[1]", "result": "significantly reduced"},
      {"measurement": "Effect on PCSK9-induced LDLR degradation", "setting": "[2]; HepG2, overnight, 25 nM PCSK9, 0, 10, 25 or 100 nM protein", "result": "reverted in a dose-dependent manner"}
    ]},
    {"molecule": "B1", "values": [
      {"measurement": "Block of exogenously added PCSK9", "setting": "[2]; 250 nM, HepG2, exogenous PCSK9 ~6-fold endogenous levels", "result": "not sufficient"},
      {"measurement": "Concentration at which maximum effect on total LDLR protein levels was saturated", "setting": "[2]; HepG2, overnight", "result": "≤ 25", "unit": "nM"},
      {"measurement": "Total LDLR protein levels", "setting": "[2]; HepG2, overnight, extracellular addition, endogenously secreted PCSK9", "result": "significantly increases"},
      {"measurement": "LDLR pull-down with PCSK9", "setting": "PCSK9 binding to LDLR", "result": "partially inhibited"}
    ]}
  ]
}
